Assay results: patent publication WO2008021263A2

Tests used:
[1] = biological target: SDF-1α (stromal cell-derived factor-1 alpha) (Felis catus (Cat) (Felis silvestris catus)) (UniProt O62657); experiment: SPR, Fab (about 1250 RU) on anti-CH1 chip, saturating SDF-1α (Figure 5: 1D3)
[2] = biological target: SDF-1α (stromal cell-derived factor-1 alpha) (Felis catus (Cat) (Felis silvestris catus)) (UniProt O62657); experiment: SPR, calculated as (RU SDF-1α/RU Fab)*(M.Wt Fab/M.Wt SDF-1α), Fab on anti-CH1 chip (Figure 5: 1D3)

SDF-1α (stromal cell-derived factor-1 alpha) (Felis catus (Cat) (Felis silvestris catus)), sequence (O62657 22-89 limits assumed): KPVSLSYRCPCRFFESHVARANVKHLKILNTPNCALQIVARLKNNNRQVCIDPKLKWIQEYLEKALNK

RUSDF-1α (response units of SDF-1α bound) [1]: 350 RU
stoichiometry (molecules of SDF-1α bound per Fab molecule) (molecules of SDF-1α per Fab molecule) [2]: 1.75
B1: 1D3 Fab (Fab, V domains shown)
VH: EVQLVQSGAEVKKPGASVKVSCKVSGYTLTKLSVHWVRQAPGKGLEWMGSFDPEDGETIYSQRFQGRVTMTEDTSTDTAYMELTSLRSEDTAVYYCATEGQWLVAYYGMDVWGQGTTVTVSS
VL: EIVLTQSPSSLSASVGDRVTITCRASQGISSALAWYQQKPGKAPKLLIYDASSLESGVPSRFSGSGSGTDFTLTISSLQPEDFATYYCQQFNSYPLTFGGGTKVEIK
